Results from US20190309079A1 (Regeneron, published 2019).
Each block holds one binder with its values, some of them ahead of it.

Columns and labels:
human LEPR Ig (D3)-MMH = target: T1, human LEPR Ig (D3)-MMH (human, UniProt P48357 340-427, limits assumed); assay: Luminex, myc-captured protein on beads
T1 construct: domain: Ig (D3)
T1 sequence (looked up): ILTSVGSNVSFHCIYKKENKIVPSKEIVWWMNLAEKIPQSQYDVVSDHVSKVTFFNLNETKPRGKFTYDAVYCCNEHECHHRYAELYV
Procedure: (§1) Aliquots of microspheres with immobilized anti-myc monoclonal antibodies, prepared as described above, were added individually to 1 mL of the each of these protein supernatants. The microspheres were gently mixed, incubated for two hours at 25° C., washed twice with 1 mL of DBPS, centrifuged to remove the supernatant and finally resuspended in 1 mL of DPBS buffer. […] of anti-myc IgG coupled microspheres from individual reactions with full length human LEPR and with each of the human LEPR domain proteins were withdrawn and mixed together in 3.6 mL of PBS+20 mg/mL BSA+0.05% sodium azide (blocking buffer).
(§2) From this mixed pool, 75 μL of microspheres were plated per well on a 96 well filter plate (Millipore, Cat. No: MSBVN1250) and mixed with 25 μL of individual anti-human LEPR monoclonal antibodies (0.5 or 5 μg/mL), incubated for two hours at 25° C. and then washed twice with 200 μL of DPBS with 0.05% Tween 20 (washing buffer). […] After 30 minutes, the samples were washed twice with 200 µL of washing buffer and resuspended in 150 μL of wash buffer. The Median Fluorescence intensity (MFI) of the microspheres was measured in a Luminex Analyzer.

[1] = target: T2, human LEPR CRH1-Ig (D2,D3)-MMH (human, UniProt P48357 230-427, limits assumed); assay: Luminex, myc-captured protein on beads
T2 construct: domain: CRH1-Ig (D2,D3)
T2 sequence (looked up): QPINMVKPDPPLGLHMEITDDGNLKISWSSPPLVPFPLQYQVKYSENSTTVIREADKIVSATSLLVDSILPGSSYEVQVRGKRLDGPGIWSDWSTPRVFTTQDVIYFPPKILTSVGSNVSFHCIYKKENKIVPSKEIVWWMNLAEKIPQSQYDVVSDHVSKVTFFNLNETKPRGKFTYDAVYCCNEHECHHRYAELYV
Procedure: as §1, §2

- Luminex MFI (human LEPR Ig (D3)-MMH): 27 MFI
B1: H4H18482P2 (antibody, human IgG4, V domains shown)
VH: QVQLQESGPGLVKPSQTLSLTCTVSGGSISSGNYYWNWIRQQPGEGLEWIAYIYHNGVTNFNPSLKSRLTISVDTSKTQFSLKLRSVTAADTAVYYCARSGSWFENWYFDLWGRGTLVTVSS
VL: not shown
notes: human IgG4 Fc

- Luminex MFI (human LEPR Ig (D3)-MMH): 22 MFI
- Luminex MFI [1]: 62 MFI
B2: H4H18487P2 (antibody, V domains shown)
VH: QVQLQESGPGLVKPSETLSLTCTVSGGSISNSYWSWIRQPPGKGLEWIGYVYSRGNTKYNPSLTSRVTMSFDTSKNQFSLKLRSVTAADTAVYYCARSSSWYEDWYFDLWGRGTLVTVSS
VL: not shown

- Luminex MFI (human LEPR Ig (D3)-MMH): 19 MFI
- Luminex MFI [1]: 8680 MFI
B3: H4H18492P2 (antibody, V domains shown)
VH: QVQLQQWGAGLFKPSETLSLTCDVYGGSFRGYYWSWIRQPPGKGLEWIGEISYSGFTNYNPSLKSRVIISIDTSKNQFSLKMSSVTAADTAVYYCARVTYGYGTFDYWGQGTLVTVSS
VL: not shown
